Assay results taken from US20120230939A1 (BOARD OF TRUSTEES OF THE UNIVERSITY OF ILLINOIS, published 2012).

Legend:
HLA-A0201 [1] = molecular target: T1, HLA-A0201 (human); test: cell-based or functional assay
T1 construct: whole, on cells; also called HLA-A201; HLA-A2

HLA-A0201 [2] = molecular target: T1, HLA-A0201; test: T2 binding assay: stabilisation of HLA-A2 on T2 cells, flow cytometry
From the text: HLA-A2 expression was visualized by direct staining with FITC conjugated MA2.1 antibody or an isotype control (BD Biosciences, San Diego, Calif.) followed by analysis on a FC500 flow cytometer (Beckman Coulter, Miami, Fla.).

HLA-A0201 [3] = molecular target: T1, HLA-A0201; test: T2 binding assay: HLA-A2 expression on T2 cells, flow cytometry
Method: Briefly, T2 cells (5×10⁵/well) were pulsed with PSA-peptide or DMSO at the designated concentration and cultured in 24-well plates overnight (18 hours) at 37° C. in 5% CO₂ atmosphere.

Row | binding result (HLA-A0201 [2]) | Molecule | also measured
1 | binds | SMNDGLSFI (Synthetic peptide, >95% purity) [TEM8 298-306 peptide] | –
2 | no binding (tested: 1 to 80 ug/ml) | TLNEKPFSV (Synthetic peptide, >95% purity) [TEM8 266-274 peptide] | –

Further lines, the molecule ahead of its results:

Row | Molecule | binding result (HLA-A0201 [2]) | also measured
3 | anti-HLA-A2 monoclonal antibody (BB7.2) | – | fold decrease in cytolytic activity of CD8+ CTL induced with TEM8 298-306 against HepG2 targets (12-hour chromium release assay) (HLA-A0201 [1]): 2 fold
4 | CALPERPSLYTKVVHYRKWIK (Synthetic peptide, >95% purity, bought from Research Genetics Inc; also called 21-mer PSA 210-230 peptide) [PSA 210-230 peptide] | – | binding result (HLA-A0201 [3]): binds
5 | ALQGIIHSI (Synthetic peptide, >95% purity) [TEM8 207-215 peptide] | binds | –
